In patent publication US20160138094, “Direct, Programmable Detection of Epigenetic DNA Cytosine Modifications using TAL Effectors” (UNIVERSITÄt KONSTANZ, published 2016):

Legend:
[1] = target: T1, TALE_97 (HD at repeat 5 opposite C6) (Xanthomonas axonopodis pv. citri …, UniProt B2SU53); experiment: EMSA; Tris, NaCl, MgCl2, salmon sperm DNA, room temperature; conditions: tags: N-terminal thioredoxin and S-tag, C-terminal His6; label: 5'-32P on reverse strand
Excerpt: Oligonucleotides 97_C2/5/6/11/12/14 mC_rev (SEQ ID NO: 5) and 97_T3/4/8/9/10/16 mC_rev (SEQ ID NO: 8) were 5′-³²P-end labeled using γ-³²P-ATP and T4 polynucleotide kinase (Fermentas) and purified using a G-25 gel filtration column (GE Healthcare). Oligonucleotides were hybridized pairwise (97/97_C2/5/6/11/12/14 mC_rev (SEQ ID NO: 3/SEQ ID NO: 5); 97_C2/5/6/11/12/14 mC/97_C2/5/6/11/12/14 mC_rev (SEQ ID NO: 4/SEQ ID NO: 5); 97_T3/4/8/9/10/16 C/97_T3/4/8/9/10/16 mC_rev (SEQ ID NO: 6/SEQ ID NO: 8); 97_T3/4/8/9/10/16 mC/97_T3/4/8/9/10/16 mC_rev (SEQ ID NO: 7/SEQ ID NO: 8)) at a concentration of 12.5 nM, respectively, by incubating at 95° C. for 5 min and subsequently at room temperature for 30 min in Hybridization buffer (40 mM Tris-HCl (pH=8.0), 100 mM NaCl, 10 mM MgCl₂, 100 ng/μl salmon sperm DNA (Ambion), 0.2 mg/ml BSA, 10% glycerol). For TALE-binding, to 6 μL of the hybridized DNA duplexes, 6 μL of TALE storage buffer (20 mM Tris-HCl pH=7.5, 200 mM NaCl, 10% Glycerol, 1 mM DTT) with varying concentrations of TALE proteins were added and mixtures were incubated at room temperature for 30 min. Mixtures were loaded onto an analytical, non-denaturing PAGE-gel (0.5 mm, 50 cm length) that was run in 0.25×TB buffer at 12 W and room temperature. Gel was dried and data recorded on a phosphorimager.

[2] = target: T1, TALE_97 (HD at repeat 5 opposite C6); experiment: inhibition; inhibition of Klenow exo- primer extension, MgCl2, room temperature; conditions: tags: N-terminal thioredoxin and S-tag, C-terminal His6; label: 5'-32P on primer; 5' overhang template with primer duplex at template 3' end
Experimental: Templates as shown in FIG. 2 (SEQ ID NOs: 9 to 14) and primer p97_rev (SEQ ID NO: 15; 5′-³²P-end labeled as above) were diluted from 5× stocks (500 nM and 166.5 nM, respectively) into 6 μL Hybridization buffer (40 mM Tris-HCl (pH 8.0), 100 mM NaCl, 10 mM MgCl₂, 0.2 mg/ml BSA, 10% glycerol) to final concentrations of 100 nM and 33.3 nM and hybridized by incubating at 95° C. for 5 min and subsequently at room temperature for 30 min. TALE proteins with various RVDs at position 5 were added in 6 μL TALE storage buffer (200 mM NaCl, 20 mM Tris-HCl (pH 7.5), 1 mM DTT, 10% glycerol) at varying concentrations and mixtures were incubated at room temperature for 30 min. 12 μL of a mixture of 25 mU Klenow Fragment of E. coli DNA polymerase I (3′-5′-exo⁻, New England Biolabs) and 200 μM of each dNTP in Binding buffer (30 mM Tris-HCl (pH 8.0), 150 mM NaCl, 5 mM MgCl₂, 0.1 mg/ml BSA, 0.5 mM DTT, 7.5% glycerol) were added, resulting in final concentrations of 8.325 nM and 25 nM for primer and template, respectively. These mixtures were incubated at room temperature for additional 15 min. 12 μL of PAGE loading buffer (80% formamide, 2 mM EDTA) were added, the mixtures were incubated at 95° C. for 5 min and cooled to 4° C. […] Gel was dried and data recorded on a phosphorimager. […]

B1: 97 / 97_C2/5/6/11/12/14mC_rev duplex (dsDNA)
DNA 1: AGACGGCATACGATCTTCCGTTTCCACATCCACCACATCCCAACAGAGCAGCGGGAGCAGCAGTAAAGATCGGAAGAGC
DNA 2: GCTCTTCCGATCTTTACTGCTGCTCCCGCTGCTCTGTTGGGATGTGGTGGATGTGGAAACGGAAGATCGTATGCCGTCT
- binding result [1]: binds

B2: t97 template / p97_rev primer (dsDNA)
DNA 1: TGGATTCCCACTCTTCAGCCCCAGCGTTACAGCATCTTCAGTGGCTTCTTCCACCGTGAGCTCTTCCGTTTCCACATCC
DNA 2: GGATGTGGAAACGGAAGA
- IC50 [2]: 106 nM
